The text below walks through data of the nanobody polyreactivity screen of Harvey et al. (2022).

This series can be described thus: yeast display, Sf9 membrane polyspecificity reagent, FACS + sequencing; frameworks hold sequencing errors. An outline of the steps: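 Genes from sorted yeast were amplified by colony PCR, read by MiSeq 2 × 250 sequencing and filtered on CDR length. These cells carried a synthetic nanobody library in Saccharomyces cerevisiae BJ5465 and were sorted by FACS into low and high (top ~1%) gates on anti-HA and streptavidin fluorescence. Polyreactivity is labelled according to the gate of origin.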
As for “QVQLVESGGGLVQAGGSLRLSCAASGRTFGYNAMGWYRHAPGKERELVAAISSSGGSTYYADSVKGRFTISRDNAKNTVYLQMNSLKPEDTEVYYCATQGYSWAHGSDYWGQGTQVTVSS”, the “polyreactivity (PSR sort gate)” value is on record as “low polyreactivity”.

Consider “QVQLVESGRGLVQAGGSLRLSCAASGRIFYVYDMGWYRQAPGKESELVAAITQSGGRTYYADSVKGRFTISRDNAKNTVYLQRNSLKPEDTAVYYCAATWLGSRNLVHITLYYWGQGTQVTVSS”, for which the “polyreactivity (PSR sort gate)” value is listed as “low polyreactivity”.

In the case of “QVQLVESGRGLVQAGASLRLSCAASGSTFAQYARGSYRQAPWKESELVAAITRTGITNYADSVKGRFTISRDNAKNNVYLQMNSLKPEDTAVYYCAARRWRNGYGTGYGYWGLGTQVTVSS”, the “polyreactivity (PSR sort gate)” value was “high polyreactivity”.

In the case of “QVQHVESGGGLVQAGGSLRLSCAASGIIFYHNAMGWYRQAPVKERELVASITEIGGSTYYADSVKGLFTISRDNAKSTVYLQMNRLKPEDTAVYYCAAGTLTSFSRYDYWGQGTQVTVSS”, the “polyreactivity (PSR sort gate)” value is on record as “low polyreactivity”.

Take “QVQLVESGGGLVQAGGSLRLSCAASGITLTPYAMGWYRQAPGKERELVAAISWSGGSTYYADSVKGRFTISRDNAKNTVYLQMNSLKPEDTAVYYCAAGPGQYTVYAGTIGEYDYWGQGTQVTVSS”: the “polyreactivity (PSR sort gate)” value is listed as “high polyreactivity”. Take “QVHLVESGGVLVQAGGSLRLSCAASGSIYESYVMGWYRQAPRKERELVASISSGGSTYYADSVKGRFTISRDNAKNTVYFQNNSLKQEDTAGYYCAANYDGGYLDYEAGYRLEYDFWGQGTQVTVSS”: the “polyreactivity (PSR sort gate)” value is listed as “low polyreactivity”. In the case of “QVQLVESGGGLVQAGGSLRLSCAASGFTFPKYAMGWYRQAPGKERELVAGITTGGSTYYADSVKGRFTISRDNAKNTVYLQMNSLKPEDTAVYYCAASGRLSLGGRFYDLGLRYDYWGQGTQVTVSS”, the “polyreactivity (PSR sort gate)” value is recorded as “low polyreactivity”. With “QVQLVESGGGLVQAGGSLRLTCAASGRTFPLNVMGWYRQAPGKERELVAAITVSAGSTYYADSVKGRFTISRDNAKNTVYLQMNSLKPEDTAVYYCAKATSSFYHYRYDYWGQGTQVTVSS” the entry was “low polyreactivity”. In the case of “HVQLVESGGGLFQAGGRLRVSCAASGNTIWGNAMGGSRQAPGKEREVVAAITGGGDTNYADSVKGRFTISRDNAKNTVYLQMNSLKPEDTAVYYCAADSSEWLLKDDYWGQGTQVTVSS”, the “polyreactivity (PSR sort gate)” value is “low polyreactivity”. Regarding “QVQLVESGGGLFQAGGSLRLSCAASGRTFAIYDMGWYRQAPGKEREVVAAIDYSDGSTYYADSVKGRFTISRDNAKNTVYLQMNSLKPEDTAVYYCAADYDAIYLWWGYDYWGQGTQVTVSS”, the “polyreactivity (PSR sort gate)” value was “low polyreactivity”.

Consider “QVQLVESGGGLVQAGGSLRLSCAASGFIFYKYAMGWYRQAPGKERELVAAISRRGGNTYYADSVKGRFTISRDNAKNTVYLQMNSLKPEDTAVYYCIAVLYFPYEYWGQGTQVTVSS”, for which the “polyreactivity (PSR sort gate)” value is given as “high polyreactivity”.

Take “QVQLVESGGGLVQAGGSLRLSCAASGFTFAMNAMGWYRQAPGKERELVAAITFSGGSTYADSVKGRFTISRDNAKNTVYLQMNSLKPEDTAVYYCNAGGDGVATGYDYWGQGTQVTVSS”: the “polyreactivity (PSR sort gate)” value is “low polyreactivity”. Regarding “QVQLVESGGGLVQAGGSLRLSCAASGSIFWDNAMGWYRQAPGKERELVAAITSSGDTTYYADSVKGRFTISRDNAKNTVYVQMNSLKPEDTAVYYCAKVFGPTDYLTGTFKGDYWGQGTQVTVSS”, the “polyreactivity (PSR sort gate)” value is “low polyreactivity”. Regarding “QVQLVESGGGLVQAGGSLRLSCAASGSIFLINAMGWYRQAPGKETELVAAISRSGGRTYYADSVKGRFTISRDNAKNTVYLQMNSLKPEDTAVYYCAVPSIYYAGRAYDYWGQGTQVTVSS”, the “polyreactivity (PSR sort gate)” value was “high polyreactivity”. With “QVQLVESGGGLVQAGGSLRLSCAASGFIFSGNAMGWYRQAPGKARELVAAISWSGTSTFYADSVKGRFTISRDNAKNTVYLQMHSLIPEDTAVYYCAAETYYSYWYRPHYDYWGQGTQVTVSS”, the “polyreactivity (PSR sort gate)” value is reported as “low polyreactivity”. Take “HVQLQESGGGLEQAGGSLRLSCAASGYISDIGTMGWYRQAPGKEREFVANIVVGSTTNYADSVKGRFTISRDNAKNTVYLQPESGRYRGVLLRGWLLAVGKFTYWGQGTQETVSS”: the “polyreactivity (PSR sort gate)” value is listed as “low polyreactivity”.
